Assay [1] has as its target SARS-CoV-2 Spike S2-hFc (SARS-CoV-2), P0DTC2. Nature of the assay: Octet, Fab as analyte over S2-hFc on AHC sensor. The following applies: remark: other sources report otherwise.
The target is the same in assay [2]. Nature of the assay: Octet BLI; Fab as analyte over S2-hFc on AHC sensors; steady-state analysis. The note with it: remark: other sources report otherwise.

B1: 2-A6 Fab (Fab, V domains shown)
VH: QVTLRESGPALVKPTQTLTLTCTFSGFSLNTRGMSVSWIRQPPGKALEWLALIDWEDDKFYRTSLMTRLTISKDIFKNQVVLTMTNVDPVDTGTYYCARTYSVGVKYFGMDVWGQGTTVTVSS
VL: SSELTQDPAVSVALGQTVRITCQGDSLRNYYASWYRQEPGQAPILLIYGGNYRPSGIPDRFSGSSSGNTASLTITGAQAEDEADYYCNSRDSSGNHVVFGGGTKLTVL
Take B1: the results for the equilibrium dissociation constant (Kd) in assay [1] and in assay [2] were 900 nM and 913 nM, respectively.

For the origin of these results see patent US20230250158A1.
